In series [1] the target is T1, APP (Homo sapiens, UniProt P05067). Briefly: P2 effect on APP processing and amyloid formation (Western blot, immunofluorescence). Type of series: cell-based. (In general: Immunoblotting shows a protein as a band on a membrane.)
Target sequence in this assay (P05067 18-770, species assumed): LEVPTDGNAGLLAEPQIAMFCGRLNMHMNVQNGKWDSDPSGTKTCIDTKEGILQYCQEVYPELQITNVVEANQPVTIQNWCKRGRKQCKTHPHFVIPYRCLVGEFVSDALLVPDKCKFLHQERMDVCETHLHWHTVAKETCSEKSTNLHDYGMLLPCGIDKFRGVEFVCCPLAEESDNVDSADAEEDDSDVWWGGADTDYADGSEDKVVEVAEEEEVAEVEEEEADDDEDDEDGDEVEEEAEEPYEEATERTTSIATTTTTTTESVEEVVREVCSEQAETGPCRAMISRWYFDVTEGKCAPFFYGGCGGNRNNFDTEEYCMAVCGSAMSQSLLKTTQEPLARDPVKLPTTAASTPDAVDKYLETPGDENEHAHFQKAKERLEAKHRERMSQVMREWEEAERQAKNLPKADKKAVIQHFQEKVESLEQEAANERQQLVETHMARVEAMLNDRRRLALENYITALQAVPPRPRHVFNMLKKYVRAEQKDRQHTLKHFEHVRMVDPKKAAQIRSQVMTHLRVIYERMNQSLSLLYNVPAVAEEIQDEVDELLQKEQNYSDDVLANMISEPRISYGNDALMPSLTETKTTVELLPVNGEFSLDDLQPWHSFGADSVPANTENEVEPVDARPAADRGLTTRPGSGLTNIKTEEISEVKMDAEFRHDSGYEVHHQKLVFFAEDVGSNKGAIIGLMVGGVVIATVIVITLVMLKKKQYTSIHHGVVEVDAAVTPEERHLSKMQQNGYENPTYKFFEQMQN
The nature of series [2]: Water solubility of the peptide. The series is classed as physicochemical.
Series [3] addresses T1, APP. As to the kind of experiment: APP protein stability assay with cycloheximide (CHX) in HEK293 cells. Type of series: cell-based. The arrangement: expressed in transfected cells; host or cells: HEK293. Particulars: HEK293 co-transfected with APP plasmid plus P2 or BSA; CHX for one hour.
Target sequence in this assay (P05067 18-695 isoform P05067-4 limits assumed): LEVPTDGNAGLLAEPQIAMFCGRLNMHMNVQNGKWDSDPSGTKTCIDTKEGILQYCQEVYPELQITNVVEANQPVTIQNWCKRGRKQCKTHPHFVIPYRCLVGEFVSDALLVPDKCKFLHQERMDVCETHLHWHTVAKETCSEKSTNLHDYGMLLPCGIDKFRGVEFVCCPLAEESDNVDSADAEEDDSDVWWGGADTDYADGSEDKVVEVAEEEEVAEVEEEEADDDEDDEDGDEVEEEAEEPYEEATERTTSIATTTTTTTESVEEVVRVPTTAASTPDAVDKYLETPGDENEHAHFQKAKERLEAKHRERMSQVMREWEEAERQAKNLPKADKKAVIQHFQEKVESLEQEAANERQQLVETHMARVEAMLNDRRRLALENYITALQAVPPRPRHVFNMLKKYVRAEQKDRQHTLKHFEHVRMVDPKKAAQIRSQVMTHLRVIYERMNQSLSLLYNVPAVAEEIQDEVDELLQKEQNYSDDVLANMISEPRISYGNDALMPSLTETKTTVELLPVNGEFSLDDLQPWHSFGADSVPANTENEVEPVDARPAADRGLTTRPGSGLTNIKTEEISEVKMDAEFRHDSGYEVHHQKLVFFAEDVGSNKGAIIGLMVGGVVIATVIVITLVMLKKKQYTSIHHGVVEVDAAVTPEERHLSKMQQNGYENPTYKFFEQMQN
Series [4] has as its target T1, APP. Briefly: APP expression in HEK293 cells with P2 peptide (Western blot). The arrangement: expressed in transfected cells; host or cells: HEK293. The series is classed as cell-based.
Target sequence in this assay (P05067 18-695 isoform P05067-4 limits assumed): as above
For series [5], the target named is T2, Epstein-Barr virus latent membrane protein 1 (LMP1) (Epstein-Barr virus, UniProt P03230).
T2 construct: expressed in transfected cells; host or cells: HEK293
Briefly: LMP1 expression in HEK293 cells co-transfected with P2 peptide (specificity control). Type of series: cell-based. The settings on record: HEK293 co-transfected with LMP1 expression plasmid and P2 peptide with PULSin. The text has this:
FIGS. 6A-6B: FIG. 6A. HEK293 cells were transfected with EBV LMP1 expression plasmid or vector control (pcDNA3). One day later, the cells were infected with or without ZIKV overnight as in FIG. 2a. Western blots were used for detection of LMP1 and tubulin simultaneously. The images in the same box indicate they were derived from the same gels. The identity of the proteins is as shown. FIG. 6B. HEK293 cells were co-transfected with different amounts of LMP1 expression plasmid and P2 peptide, or BSA protein ([…]) with PULSin reagents. One day later, the expression of APP and tubulin were examined simultaneously by Western Blot analyses. The identity of the proteins is as shown.
We suspected that the loop in the specific structure of ZIKV E protein was responsible for the potential interaction with APP (FIGS. 1A and 1B). A peptide (P2) derived from the potential binding site, the β-hairpin region, was synthesized with sequence optimization (FIG. 1C). Located in the core region of the ZIKV E protein and being hydrophobic, the eight amino acid stretch, EYRIMLSV, in the β-hairpin region of E protein was not included in the P2 sequence. Furthermore, the P2 peptide could potentially form a similar structure as in the native protein by including extra amino acids in the C-terminus (FIGS. 1B and 1C). […]

T2 sequence (P03230 whole entry): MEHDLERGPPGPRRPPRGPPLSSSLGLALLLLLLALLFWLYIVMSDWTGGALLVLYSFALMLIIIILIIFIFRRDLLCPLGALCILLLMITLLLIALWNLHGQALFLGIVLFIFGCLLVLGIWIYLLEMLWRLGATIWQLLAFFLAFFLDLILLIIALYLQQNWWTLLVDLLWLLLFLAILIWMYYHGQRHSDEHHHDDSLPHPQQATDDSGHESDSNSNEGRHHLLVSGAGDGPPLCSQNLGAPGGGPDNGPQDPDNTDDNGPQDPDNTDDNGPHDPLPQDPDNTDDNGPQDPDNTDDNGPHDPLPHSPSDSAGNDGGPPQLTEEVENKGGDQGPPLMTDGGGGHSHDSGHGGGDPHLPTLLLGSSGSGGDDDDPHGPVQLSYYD

For the sequence “HGSQHSGMIVNDTGHETDENRAKVEITPNSPRAEATLGGFGSLGL (listed as Zika virus) [P2, peptide derived from the β-hairpin region of ZIKV E protein, without EYRIMLSV stretch]”, in the series with APP [1] (Example 4, FIG. 13), the APP metabolic processing entry is listed as “block APP metabolic processing” and the “interaction with APP” value was “interacts with APP”. Also, in the series with APP [1] (Western blot (FIG. 13A) and immunofluorescence (FIG. 13B)), the amyloid formation entry is reported as “reduces amyloid formation”. In addition, the water solubility result in series [2] is reported as “water-soluble”. Besides, the “mechanism of APP enhancement (APP protein stability)” value in the series with APP [3] is reported as “a similar mechanism to ZIKV was established”. In addition, the APP expression entry in the series with APP [4] (HEK293 co-transfected with APP695 plasmid (0.5 μg) and P2 peptide (1 μg) with PULSin, compared with BSA control, one day later) is on record as “could increase the expression of APP”. For the same sequence, the APP expression entry with APP [4] (treating cells directly with peptide (data not shown)) is reported as “could not enhance APP expression”. For the same sequence, the LMP1 expression entry in series [5] was “could not be enhanced”.

The values are drawn from US12364734B2, “Methods of treating Alzheimers disease” (NUtech Ventures, priority 2020, dated 2025).
